Positions of bridges follow the written chain, without caps; N, C: chain ends. Non-standard residues stand in square brackets, D forms with d. Residues, ends and D or L forms follow the SMILES beside them. S5 = C=CCCC[C@](C)(N)C(=O)O; Abu = CC[C@H](N)C(=O)O; Aib = CC(C)(N)C(=O)O

A short description of data set [1]: circular dichroism. The note with it: 5 mM sodium phosphate; pH 7.0; ns °C; 0.5 or 2 mg/mL.
Data set [2] deals with T1, eIF4E (Homo sapiens, UniProt P06730).
T1 construct: made in house
Briefly: eIF4E affinity (SPR/FP, method not named). The class given is binding. The protocol:
Apparent Kd values were determined for a variety of molecules via competitive anisotropy anisotropy experiments. Titrations were carried out with the concentrations eIF4E held constant at 200 nM, respectively and the labeled peptide at 50 nM. The competing molecules were then titrated against complex of the FAM labeled peptide and protein. Apparent Kd values were determined by fitting the experimental data to the equations shown below: […]
(§1) Six buffer blanks were first injected to equilibrate the instrument fully and then a solvent correction curve was performed followed by a further two blank injections. […] Using a flow rate of 50 μl/min, compounds were injected for 60 s and dissociation was monitored for 180 s. The data collection rate was 10 Hz. Kds were determined using the BiaEvaluation software (Biacore) and calculated kinetically from the dissociation and association phase data for each of the peptides. The kinetic data were fitted to 1:1 binding models. Each individual peptide Kd was determined from three separate titrations. Within each titration at least two concentration points were duplicated to ensure stability and robustness of the chip surface.

A short description of data set [3]: Circular dichroism, percent α-helicity in solution. In kind it is physicochemical. To be noted: CD, 5 mM sodium phosphate buffer pH 7.0. The method, then: CD was measured on a JASCO J-810 spectropolarimeter, and spectra were either recorded with a quartz cuvette (Helmer) with a pathlength of 0.01 cm or 0.1 cm in 5 mM sodium phosphate buffer (pH 7.0). FUV CD spectra were recorded from 260 nm to 200 nm at a peptide concentration of either 2 mg/ml or 0.5 mg/ml, respectively. The CD signal was converted into mean residue ellipticity in units of degree·cm^2·dmol^−1·residue^−1. CD spectra were recorded at a data pitch of 0.2 nm at 50 nm min^−1, a response time of 2 s, and a bandwidth of […]. Once converted to mean residue ellipticity, percent α-helicity can be calculated with equation (1) and (2): […]

Data set [4] has as its target T2, human eukaryotic translation initiation factor 4E (eIF4E), full-length (human, UniProt P06730 2-217).
T2 construct: mature; For SPR it was amine-coupled to a CM5 chip with m7GTP present in a 2:1 ratio. 'mature' is used here for full length; also called full length eIF4E
Briefly: SPR, Biacore T100, eIF4E immobilised on CM5, peptide as analyte, kinetic 1:1 fit. The protocol:
For stock peptide solutions, the compounds were dissolved in 100% DMSO to a concentration of 10 mM; further dilutions of the peptide stock solutions into DMSO and/or running buffer were performed immediately prior to analysis. Running buffer consisted of 10 mM Hepes pH 7.6, 0.15M NaCl, 1 mM DTT and 0.1% Tween20. Stock/DMSO diluted peptide solutions were diluted into 1.03× running buffer to make a peptide solution with 3% DMSO final concentration. […] Surface Plasmon resonance experiments were performed on a Biacore T100 machine.
eIF4E was immobilized on a CM5 sensor chip. The CM5 chip was conditioned with a 6 s injection of 100 mM HCL, followed by a 6 s injection of 0.1% SDS and completed with a 6 s injection of 50 mM NaOH at a flow rate of 100 μl/min. […] Purified eIF4E was diluted with 10 mM sodium acetate buffer (pH 5.0) to a final concentration of 0.5 μM with m⁷ GTP present in a 2:1 ratio in order to stabilize eIF4E. The amount of eIF4E immobilized on the activated surface was controlled by altering the contact time of the protein solution and was approximately 1000 RU. After the immobilization of the protein, a 7-min injection (at 10 μl min⁻¹) of 1 M ethanolamine (pH 8.5) was used to quench excess active succinimide ester groups.
as §1, with “titrations.” for “titrations. Within each titration at least two concentration points were duplicated to ensure stability and robustness of the chip surface.”

The target in data set [5] is T2, human eukaryotic translation initiation …. Description: competitive fluorescence anisotropy (FP), displacement of FAM tracer from eIF4E, apparent Kd. The protocol:
Apparent Kd values were determined for a variety of molecules via competitive anisotropy anisotropy experiments. Titrations were carried out with the concentrations eIF4E held constant at 200 nM, respectively and the labeled peptide at 50 nM. […] Apparent Kd values were determined by fitting the experimental data to the equations shown below: […]

T2 sequence (P06730 2-217): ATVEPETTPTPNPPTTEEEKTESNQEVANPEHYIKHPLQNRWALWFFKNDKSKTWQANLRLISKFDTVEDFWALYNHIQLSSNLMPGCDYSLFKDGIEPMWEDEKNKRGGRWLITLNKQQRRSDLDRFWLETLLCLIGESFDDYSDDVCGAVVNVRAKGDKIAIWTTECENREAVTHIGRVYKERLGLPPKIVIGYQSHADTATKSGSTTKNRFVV
T1 sequence (P06730 whole entry): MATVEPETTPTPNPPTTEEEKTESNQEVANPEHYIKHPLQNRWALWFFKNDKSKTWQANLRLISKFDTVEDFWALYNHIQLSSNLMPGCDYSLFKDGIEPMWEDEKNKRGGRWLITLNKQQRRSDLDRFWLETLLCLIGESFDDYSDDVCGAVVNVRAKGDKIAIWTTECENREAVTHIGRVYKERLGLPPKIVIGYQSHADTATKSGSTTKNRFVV

`CC(=O)N[C@@H](CCCCN)C(=O)N[C@@H](CCCCN)C(=O)N[C@@H](CCCNC(=N)N)C(=O)N[C@@H](Cc1ccc(O)cc1)C(=O)N[C@@H](CO)C(=O)N[C@@H](CCCNC(=N)N)C(=O)N[C@@]1(C)CCCC=CCCC[C@@](C)(C(=O)N[C@@H](Cc2ccccc2)C(N)=O)NC(=O)[C@H](CC(C)C)NC(=O)[C@H](CC(C)C)NC(=O)[C@H](C)NC1=O` (relative stereo) [sTIP-01^F8A, KKRYSR*ALL*F] showed a helicity in data set [1] of 80%. The “affinity / binding to eIF4E (in words)” value in data set [2] is recorded as “improved Kd values as compared to sTIP-01”.
For `CC(=O)N[C@@H](CCCCN)C(=O)N[C@@H](CCCCN)C(=O)N[C@@H](CCCNC(=N)N)C(=O)N[C@@H](Cc1ccc(O)cc1)C(=O)N[C@@H](CO)C(=O)N[C@@H](CCCNC(=N)N)C(=O)N[C@@H](CCC(=O)O)C(=O)N[C@@]1(C)CCCC=CCCC[C@@](C)(C(N)=O)NC(=O)CNC(=O)[C@H](CC(C)C)NC(=O)[C@H](CC(C)C)NC1=O` [sTIP-02, KKRYSRE*LLG*], the helicity in data set [1] came to 18%. Besides, in data set [2], the “Kd (in words)” value is “nanomolar range” and the “affinity / binding to eIF4E (in words)” value is given as “no improvement in binding over eIF4G^D5S”.
Consider `CC(=O)N[C@@H](CCCCN)C(=O)N[C@@H](CCCCN)C(=O)N[C@@H](CCCNC(=N)N)C(=O)N[C@@H](Cc1ccc(O)cc1)C(=O)N[C@@H](CO)C(=O)N[C@@H](CCCNC(=N)N)C(=O)NC(C)(C)C(=O)N[C@@H](Cc1ccccc1)C(=O)N[C@@H](CC(C)C)C(=O)N[C@@H](CC(C)C)C(=O)NC(C)(C)C(N)=O` (Ac-KKRYSR[Aib]FLL[Aib]-NH2), for which the helicity in data set [1] came to 7%.
For `CC(=O)N[C@@H](CCCCN)C(=O)N[C@@H](CCCCN)C(=O)N[C@@H](CCCNC(=N)N)C(=O)N[C@@H](Cc1ccc(O)cc1)C(=O)N[C@@H](CO)C(=O)N[C@@H](CCCNC(=N)N)C(=O)N[C@@]1(C)CCCC=CCCC[C@@](C)(C(=O)N[C@@H](CC(C)C)C(N)=O)NC(=O)[C@H](CC(C)C)NC(=O)[C@H](CC(C)C)NC(=O)[C@H](CCC(N)=O)NC1=O` (relative stereo) [sTIP-04, KKRYSR*QLL*L], the “Helicity (%)” value in data set [3] amounted to 63%.
`CC(=O)N[C@@H](CCCCN)C(=O)N[C@@H](CCCCN)C(=O)N[C@@H](CCCNC(=N)N)C(=O)N[C@@H](Cc1ccc(O)cc1)C(=O)N[C@@H](CO)C(=O)N[C@@H](CCCNC(=N)N)C(=O)N[C@@]1(C)CCCC=CCCC[C@@](C)(C(=O)N[C@@H](Cc2ccccc2)C(N)=O)NC(=O)[C@H](CC(C)C)NC(=O)[C@H](CC(C)C)NC(=O)[C@H](Cc2ccccc2)NC1=O` (Ac-KKRYSR[S5]FLL[S5]F-NH2; staple 7-11) yielded a helicity in data set [1] of 24%.
In data set [1], `CC(=O)N[C@@H](CCCCN)C(=O)N[C@@H](CCCCN)C(=O)N[C@@H](CCCNC(=N)N)C(=O)N[C@@H](Cc1ccc(O)cc1)C(=O)N[C@@H](CO)C(=O)N[C@@H](CCCNC(=N)N)C(=O)N[C@@]1(C)CCCC=CCCC[C@@](C)(C(N)=O)NC(=O)[C@H](CC(C)C)NC(=O)[C@H](CC(C)C)NC(=O)[C@H](Cc2ccccc2)NC1=O` (Ac-KKRYSR[S5]FLL[S5]-NH2; staple 7-11) had a helicity of 72%.
In the case of `CC(=O)N[C@@H](CCCCN)C(=O)N[C@@H](CCCCN)C(=O)N[C@@H](CCCNC(=N)N)C(=O)N[C@@H](Cc1ccc(O)cc1)C(=O)N[C@@H](CO)C(=O)N[C@@H](CCCNC(=N)N)C(=O)NC(C)(C)C(=O)N[C@@H](CCC(N)=O)C(=O)N[C@@H](CC(C)C)C(=O)N[C@@H](CC(C)C)C(=O)NC(C)(C)C(=O)N[C@@H](CC(C)C)C(N)=O` [TIP-04, KKRYSRXQLLXL], in data set [1], the helicity amounted to 4%. For the same molecule, the “Helicity (%)” value in data set [3] worked out at 4%.
In data set [1], `CC(=O)N[C@@H](CCCCN)C(=O)N[C@@H](CCCCN)C(=O)N[C@@H](CCCNC(=N)N)C(=O)N[C@@H](Cc1ccc(O)cc1)C(=O)N[C@@H](CO)C(=O)N[C@@H](CCCNC(=N)N)C(=O)NC(C)(C)C(=O)N[C@@H](C)C(=O)N[C@@H](CC(C)C)C(=O)N[C@@H](CC(C)C)C(=O)NC(C)(C)C(=O)N[C@@H](Cc1ccccc1)C(N)=O` [TIP-01^F8A, KKRYSRXALLXF] (Ac-KKRYSR[Aib]ALL[Aib]F-NH2) registered a helicity of 10%. Moreover, the “Helicity (%)” value in data set [3] is 10%.
In data set [1], `CC[C@H](NC(=O)C(C)(C)NC(=O)[C@H](CC(C)C)NC(=O)[C@H](CC(C)C)NC(=O)[C@H](Cc1ccccc1)NC(=O)C(C)(C)NC(=O)[C@H](CCCNC(=N)N)NC(=O)[C@H](CO)NC(=O)[C@H](Cc1ccc(O)cc1)NC(=O)[C@H](CCCNC(=N)N)NC(=O)[C@H](CCCCN)NC(=O)[C@H](CCCCN)NC(C)=O)C(N)=O` [TIP-01^F12&, KKRYSRXFLLX&] (Ac-KKRYSR[Aib]FLL[Aib][Abu]-NH2) returned a helicity of 11%. Moreover, in data set [3], the “Helicity (%)” value is recorded as 11%.
Consider `CC[C@H](NC(=O)[C@]1(C)CCCC=CCCC[C@](C)(NC(=O)[C@H](CCCNC(=N)N)NC(=O)[C@H](CO)NC(=O)[C@H](Cc2ccc(O)cc2)NC(=O)[C@H](CCCNC(=N)N)NC(=O)[C@H](CCCCN)NC(=O)[C@H](CCCCN)NC(C)=O)C(=O)N[C@@H](Cc2ccccc2)C(=O)N[C@@H](CC(C)C)C(=O)N[C@@H](CC(C)C)C(=O)N1)C(N)=O` (relative stereo) [sTIP-01^F12&, KKRYSR*FLL*&], for which the helicity in data set [1] worked out at 44%. Besides, the “affinity / binding to eIF4E (in words)” value in data set [2] is “improved Kd values as compared to sTIP-01”. For the same molecule, the “Helicity (%)” value in data set [3] stood at 44%.
The molecule `CC(=O)N[C@@H](CCCCN)C(=O)N[C@@H](CCCCN)C(=O)N[C@@H](CCCNC(=N)N)C(=O)N[C@@H](Cc1ccc(O)cc1)C(=O)N[C@@H](CO)C(=O)N[C@@H](CCCNC(=N)N)C(=O)NC(C)(C)C(=O)N[C@@H](Cc1ccccc1)C(=O)N[C@@H](CC(C)C)C(=O)N[C@@H](CC(C)C)C(=O)NC(C)(C)C(=O)N[C@@H](Cc1ccccc1)C(N)=O` (Ac-KKRYSR[Aib]FLL[Aib]F-NH2) showed a helicity in data set [1] of 2%.
“Ac-KKRYSREFLLGF-NH2 [eIF4G^D5S, reference compound]”: the helicity in data set [1] came to 0%. Besides, the “Helicity (%)” value in data set [3] was 0%.

B1: TIP-01^F12& (peptide)
peptide: Ac-KKRYSR[Aib]FLL[Aib][Abu]-NH2
SMILES: CC[C@H](NC(=O)C(C)(C)NC(=O)[C@H](CC(C)C)NC(=O)[C@H](CC(C)C)NC(=O)[C@H](Cc1ccccc1)NC(=O)C(C)(C)NC(=O)[C@H](CCCNC(=N)N)NC(=O)[C@H](CO)NC(=O)[C@H](Cc1ccc(O)cc1)NC(=O)[C@H](CCCNC(=N)N)NC(=O)[C@H](CCCCN)NC(=O)[C@H](CCCCN)NC(C)=O)C(N)=O
notes: Printed KKRYSRXFLLX&
Take B1: the Kd is 111 nM in data set [4] and 133 nM in data set [5].

B2: TIP-04 (peptide)
peptide: Ac-KKRYSR[Aib]QLL[Aib]L-NH2
notes: Printed KKRYSRXQLLXL, X = AIB; also called AIB derivative of sTIP-04
On to B2, for which the Kd in data set [4] was determined as 22 nM; in data set [5] it was 60 nM.

B3: TIP-01^F8A (peptide)
peptide: Ac-KKRYSR[Aib]ALL[Aib]F-NH2
SMILES: CC(=O)N[C@@H](CCCCN)C(=O)N[C@@H](CCCCN)C(=O)N[C@@H](CCCNC(=N)N)C(=O)N[C@@H](Cc1ccc(O)cc1)C(=O)N[C@@H](CO)C(=O)N[C@@H](CCCNC(=N)N)C(=O)NC(C)(C)C(=O)N[C@@H](C)C(=O)N[C@@H](CC(C)C)C(=O)N[C@@H](CC(C)C)C(=O)NC(C)(C)C(=O)N[C@@H](Cc1ccccc1)C(N)=O
notes: Printed KKRYSRXALLXF, X = AIB
Regarding B3, the results for the Kd in data set [4] and in data set [5] were 117 nM and 156 nM, respectively.

Source of the values: patent publication US20160046672A1, “STAPLING eIF4E INTERACTING PEPTIDES” (AGENCY FOR SCIENCE, TECHNOLOGY AND RESEARCH, priority 2013, published 2016).
